Measured values reported in patent US20150216779A1, “COMPOSITIONS FOR TARGETED ANTI-AGING THERAPY” (THE TEXAS A&M UNIVERSITY SYSTEM, priority 2012, published 2015).

Assays:
[1] = Turbidity after heating at 90° C. for 30 seconds (plate heat exchanger); type: physicochemical; conditions: 1 mg/ml lactoferrin in 10 mM potassium acetate, pH 6.3; heated at 90° C. for 30 seconds
Procedure: Formulations containing heat-stabilized lactoferrin (1 mg/ml) without added branched-chain amino acids (Formulation 1) and heat-stabilized lactoferrin (1 mg/ml) with added branched-chain amino acids (2 mg/ml) (Formulation 2) were dissolved in the buffered solution (10 mM potassium acetate, pH 6.3) to make 4 liters solution. The two liquid formulations were heated by using a plate heat exchanger at 90° C. for 30 seconds, and cooled to 5° C., after which they were stored in sterilized bottles, and bubbled with carbon dioxide (CO2) in an aseptic room. The two resultant liquid formulations with a zinc ion concentration of 2.4 mg per 100 ml had excellent taste and appearance. […] Lactoferrin aggregation occurred at pH 6.3, which corresponded to its high thermal instability.

[2] = heat-treated at 63 and 85° C.; cited from earlier work

B1: lactoferrin: iron-binding glycoprotein of the transferrin family present in milk; unstabilized buffered solution at 1 mg/ml (protein, UniProt P24627 20-708, looked up)
Lactotransferrin: APRKNVRWCTISQPEWFKCRRWQWRMKKLGAPSITCVRRAFALECIRAIAEKKADAVTLDGGMVFEAGRDPYKLRPVAAEIYGTKESPQTHYYAVAVVKKGSNFQLDQLQGRKSCHTGLGRSAGWIIPMGILRPYLSWTESLEPLQGAVAKFFSASCVPCIDRQAYPNLCQLCKGEGENQCACSSREPYFGYSGAFKCLQDGAGDVAFVKETTVFENLPEKADRDQYELLCLNNSRAPVDAFKECHLAQVPSHAVVARSVDGKEDLIWKLLSKAQEKFGKNKSRSFQLFGSPPGQRDLLFKDSALGFLRIPSKVDSALYLGSRYLTTLKNLRETAEEVKARYTRVVWCAVGPEEQKKCQQWSQQSGQNVTCATASTTDDCIVLVLKGEADALNLDGGYIYTAGKCGLVPVLAENRKSSKHSSLDCVLRPTEGYLAVAVVKKANEGLTWNSLKDKKSCHTAVDRTAGWNIPMGLIVNQTGSCAFDEFFSQSCAPGADPKSRLCALCAGDDQGLDKCVPNSKEKYYGYTGAFRCLAEDVGDVAFVKNDTVWENTNGESTADWAKNLNREDFRLLCLDGTRKPVTEAQSCHLAVAPNHAVVSRSDRAAHVKQVLLHQQALFGKNGKNCPDKFCLFKSETKNLLFNDNTECLAKLGGRPTYEEYLGTEYVTAIANLKKCSTSPLLEACAFLTR
[1]
  appearance of solution after heating (turbidity / transparency): turbid
[2]
  immunological properties after heat treatment: loses its immunological properties
